The values below are quoted from earlier work in PMC11578925.

The target of one series is PD-L1 (Homo sapiens) (UniProt Q9NZQ7).
The target in another series is CD28 (Homo sapiens) (UniProt P10747).

Sequence of UniProt Q9NZQ7 (Q9NZQ7 19-238): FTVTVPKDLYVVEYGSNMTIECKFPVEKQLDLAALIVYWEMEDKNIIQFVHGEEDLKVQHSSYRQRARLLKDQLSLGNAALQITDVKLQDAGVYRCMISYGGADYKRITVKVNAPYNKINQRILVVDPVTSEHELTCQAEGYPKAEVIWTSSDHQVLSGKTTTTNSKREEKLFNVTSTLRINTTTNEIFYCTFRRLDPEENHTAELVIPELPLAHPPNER

With CD80 (from UniProt P33681), the equilibrium dissociation constant (Kd) with PD-L1 (Homo sapiens) is 1700 nM; in the series with CD28 (Homo sapiens) it was 4000 nM.

One may read the Kd as the free concentration of one partner at which half of the binding sites on the other are occupied at equilibrium, for simple one-to-one binding.
